This data set addresses WT hGRalpha (glucocorticoid receptor) (Homo sapiens, UniProt P04150 1-777). Put plainly: EMSA; complex abolished by 50 ng unlabeled probe; 15 min at 25 C; 4.5% acrylamide/bisacrylamide (37:1) gel, 0.25x TBE (50 mM Tris, 50 mM boric acid, 1 mM EDTA); binding buffer and pH not stated (as in ref. 26). The settings on record: protein: ivt; chain copies: 2; label: 32P-dCTP (Klenow fill-in); 5' overhangs AGCT, filled in by Klenow for the labeled probe. (In general: In EMSA bound probe runs differently from free probe, usually more slowly.)

WT hGRalpha (glucocorticoid receptor), sequence (P04150 whole entry): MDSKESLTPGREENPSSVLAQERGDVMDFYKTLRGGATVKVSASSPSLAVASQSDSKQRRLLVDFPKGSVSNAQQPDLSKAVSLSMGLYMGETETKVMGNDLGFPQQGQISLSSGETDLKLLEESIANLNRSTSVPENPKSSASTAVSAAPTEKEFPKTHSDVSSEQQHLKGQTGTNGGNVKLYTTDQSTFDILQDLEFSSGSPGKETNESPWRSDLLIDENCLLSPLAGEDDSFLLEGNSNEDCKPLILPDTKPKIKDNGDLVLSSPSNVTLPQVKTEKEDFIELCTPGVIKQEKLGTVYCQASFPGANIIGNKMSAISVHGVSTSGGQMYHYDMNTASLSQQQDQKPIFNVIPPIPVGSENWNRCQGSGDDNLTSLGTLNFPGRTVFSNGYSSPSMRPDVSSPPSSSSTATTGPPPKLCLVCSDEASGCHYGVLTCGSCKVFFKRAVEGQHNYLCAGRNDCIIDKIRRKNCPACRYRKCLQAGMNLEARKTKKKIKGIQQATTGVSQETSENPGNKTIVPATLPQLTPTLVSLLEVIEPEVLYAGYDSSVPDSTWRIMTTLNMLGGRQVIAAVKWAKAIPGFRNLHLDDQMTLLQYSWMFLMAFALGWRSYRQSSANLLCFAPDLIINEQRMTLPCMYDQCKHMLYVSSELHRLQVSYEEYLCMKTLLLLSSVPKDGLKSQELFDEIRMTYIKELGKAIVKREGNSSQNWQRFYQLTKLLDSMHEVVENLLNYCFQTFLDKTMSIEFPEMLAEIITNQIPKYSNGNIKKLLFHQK

B1: GRE consensus probe (dsDNA)
DNA 1: AGCTGCTCAGCTAGAACACTCTGTTCTCTACT
DNA 2: AGCTAGTAGAGAACAGAGTGTTCTAGCTAGC
As for B1, the binding result is recorded as “binds”.

The values above are taken from publication PMC2962642, “Familial Glucocorticoid Receptor Haploinsufficiency by Non-Sense Mediated mRNA Decay, Adrenal Hyperplasia and Apparent Mineralocorticoid Excess”.
